Measurements published in the Human Domainome abundance scans (Beltran et al. 2025).
± gives the uncertainty stated by the source.

B1: Transitional endoplasmic reticulum ATPase, residues 26 to 106; numbered along this chain, P55072 (parent)
chain: LIVDEAINEDNSVVSLSQPKMDELQLFRGDTVLLKGKKRREAVCIVLSDDTCSDEKIRMNRVVRNNLRVRLGDVISIQPCP
B2: POU domain, class 2, transcription factor 3, residues 186 to 260; numbered along this chain, Q9UKI9 (parent)
chain: SDLEELEKFAKTFKQRRIKLGFTQGDVGLAMGKLYGNDFSQTTISRFEALNLSFKNMCKLKPLLEKWLNDAESSP

Variants of: B1
Experiment: abundance fitness (aPCA) (normalised: wild type 0, dead -1); higher = more abundant; growth selection in yeast, the domain comes from the species named
Conditions: Homo sapiens

Variant	abundance fitness
Q18Y	-0.23 ± 0.15
G36C	0.015 ± 0.083
V62Y	-0.195 ± 0.13
C52F	-0.495 ± 0.27
L34S	-0.757 ± 0.12
V14E	-0.945 ± 0.31
S53A	-0.019 ± 0.048
E41L	-0.296 ± 0.062
V43K	-0.006 ± 0.13
A6W	-0.006 ± 0.064
S48W	-0.357 ± 0.18
S53D	0.021 ± 0.14
L71T	0.083 ± 0.097
S53E	0.003 ± 0.091
L24G	-0.775 ± 0.069
N60Q	-0.307 ± 0.1
C80W	-0.29 ± 0.11
N8L	-0.022 ± 0.049
E5C	-0.013 ± 0.054
L16V	-0.139 ± 0.043
L71C	-0.112 ± 0.11
R64L	-0.044 ± 0.056
Q18N	-0.461 ± 0.32
Q25T	-0.102 ± 0.062
R58Y	-0.093 ± 0.4
N66G	-0.021 ± 0.051

Variant	abundance fitness
R28P	-0.012 ± 0.068
R68S	0.068 ± 0.073
Q18D	-0.264 ± 0.089
K20R	-0.019 ± 0.073
K35D	-0.455 ± 0.18
K38T	0.033 ± 0.11
C44E	-0.559 ± 0.18
I57K	-0.931 ± 0.35
P19A	-0.018 ± 0.054
E23S	-0.062 ± 0.059
T31K	0.077 ± 0.071
R39E	0.056 ± 0.073
C80V	-0.06 ± 0.045
E9H	-0.109 ± 0.11
V14L	-0.763 ± 0.073
D49P	-0.743 ± 0.21
L16E	-0.762 ± 0.15
N66A	-0.071 ± 0.069
L47K	-0.036 ± 0.076
D50E	-0.023 ± 0.081
N60G	-0.065 ± 0.082
K38V	-0.153 ± 0.067
L47D	-0.056 ± 0.076
V43C	-0.012 ± 0.1
D10T	-0.01 ± 0.068
E23D	-0.23 ± 0.12

Variant	abundance fitness
I45F	-0.018 ± 0.076
N11Y	-0.079 ± 0.12
S53R	-0.035 ± 0.042
A42Q	-0.003 ± 0.096
I75E	-0.633 ± 0.19
K56A	0.018 ± 0.07
E9Y	-0.129 ± 0.13
N65Q	-0.075 ± 0.095
L26M	-0.047 ± 0.092
M59P	-1.12 ± 0.32
L24K	-0.98 ± 0.2
R61K	0.079 ± 0.095
A42C	0.116 ± 0.15
V3R	-0.992 ± 0.15
I45K	-0.002 ± 0.13
V13L	-0.095 ± 0.047
D22C	-0.083 ± 0.051
M21K	-0.881 ± 0.17
L33M	0.019 ± 0.083
E5L	-0.107 ± 0.041
L67T	-0.693 ± 0.25
S53G	-0.019 ± 0.048
D4S	-0.018 ± 0.05
V32T	-0.827 ± 0.19
T51H	-0.515 ± 0.41
R64H	-0.415 ± 0.1

Variant	abundance fitness
K38Y	-0.088 ± 0.14
D50G	0.031 ± 0.046
F27H	0.028 ± 0.099
E9T	-0.107 ± 0.076
C80D	-0.064 ± 0.072
G29W	-0.268 ± 0.062
S53P	-0.142 ± 0.1
R39A	-0.001 ± 0.06
N66E	0.042 ± 0.084
P79H	-0.037 ± 0.11
S17A	-0.174 ± 0.052
L47S	-0.068 ± 0.061
L67S	-0.893 ± 0.12
D54P	-0.116 ± 0.072
N66H	-0.314 ± 0.14
E23Q	-0.104 ± 0.11
T31V	-0.104 ± 0.049
E9N	0.184 ± 0.24
G72C	-0.453 ± 0.2
N11M	-0.029 ± 0.072
E55H	-0.041 ± 0.11
M21T	-0.825 ± 0.18
R39S	0.016 ± 0.05
K35P	-0.869 ± 0.27
R70F	-0.184 ± 0.1
D73R	-0.715 ± 0.084

Variant	abundance fitness
Q25P	-1 ± 0.18
Q18G	-0.034 ± 0.043
D4M	-0.041 ± 0.077
C52T	-0.027 ± 0.071
S48C	0.07 ± 0.068
V14W	-0.816 ± 0.13
E41Y	-0.14 ± 0.15
D4W	-0.091 ± 0.08
G72Q	-0.424 ± 0.13
L33G	-0.344 ± 0.038
N11L	-0.007 ± 0.053
A6R	-0.084 ± 0.053
D50K	-0.105 ± 0.18
C80N	0.141 ± 0.089
L47Q	-0.015 ± 0.088
K35E	-0.116 ± 0.16
K20A	-0.005 ± 0.062
V14I	0.042 ± 0.084
D50R	-0.057 ± 0.054
R58M	-0.068 ± 0.095
E41G	-0.269 ± 0.061
L33S	-0.122 ± 0.056
I77R	-0.91 ± 0.12
L47R	-0.01 ± 0.054
S48T	-0.005 ± 0.074
Q25V	-0.202 ± 0.052

Variant	abundance fitness
V3W	-0.952 ± 0.17
T51M	-0.131 ± 0.076
I2K	-0.006 ± 0.11
N66F	-0.263 ± 0.083
V43P	-0.26 ± 0.085
T51R	-0.086 ± 0.062
D54H	-0.073 ± 0.18
R28T	0.034 ± 0.069
R61D	-0.024 ± 0.14
D4K	-0.271 ± 0.13
C44R	-0.104 ± 0.053
L71V	-0.048 ± 0.058
M21G	-0.894 ± 0.081
N66I	-0.151 ± 0.1
V3F	-0.797 ± 0.21
P19M	0.015 ± 0.14
Q25Y	-0.485 ± 0.14
I75N	-0.842 ± 0.31
L34M	-0.073 ± 0.11
I2T	0.024 ± 0.083
L67M	-0.247 ± 0.073
V13A	-0.125 ± 0.043
V13Q	-0.112 ± 0.065
C80I	0.047 ± 0.079
I45M	-0.137 ± 0.064
L24R	-0.509 ± 0.045

Variant	abundance fitness
E55T	-0.03 ± 0.12
R64M	-0.036 ± 0.16
V69P	-1.03 ± 0.3
D22G	-0.101 ± 0.046
E9S	0.043 ± 0.061
L47H	0.126 ± 0.12
Q25K	-0.013 ± 0.076
E55Y	-0.029 ± 0.099
F27V	0.044 ± 0.048
E23K	-0.187 ± 0.11
E5Q	-0.124 ± 0.12
S17P	-0.365 ± 0.069
V14K	-0.856 ± 0.32
K56R	-0.012 ± 0.068
R68V	-0.124 ± 0.063
V46C	-0.048 ± 0.095
V32R	-0.98 ± 0.11
D22Y	-0.067 ± 0.088
L67D	-0.823 ± 0.25
L26H	-0.609 ± 0.3
C44Q	0.106 ± 0.083
L33K	-0.045 ± 0.1
V43M	0.098 ± 0.14
F27M	-0.045 ± 0.077
E23T	-0.041 ± 0.083
F27T	0.127 ± 0.06

Variant	abundance fitness
L26E	-1.02 ± 0.24
V63W	-0.342 ± 0.1
E5G	-0.032 ± 0.051
G29T	-0.391 ± 0.092
L16T	-0.793 ± 0.14
R40N	-0.075 ± 0.12
A42N	-0.147 ± 0.18
D4C	0.096 ± 0.073
D73I	-0.655 ± 0.24
V69G	-0.886 ± 0.097
D49N	-0.254 ± 0.15
R39I	-0.082 ± 0.17
S53C	-0.042 ± 0.081
L26V	-0.027 ± 0.057
V3M	-0.194 ± 0.093
A42G	-0.179 ± 0.049
L34I	0.074 ± 0.21
C80F	-0.067 ± 0.054
R28G	-0.027 ± 0.052
V62C	0.029 ± 0.095
C44Y	-0.091 ± 0.13
K56G	0.008 ± 0.04
N65C	-0.106 ± 0.095
E23I	-0.126 ± 0.18
L33C	0.055 ± 0.094
D50N	-0.105 ± 0.16

Variant	abundance fitness
V74S	-0.048 ± 0.064
V74D	-0.022 ± 0.091
V74G	-0.085 ± 0.052
D10E	-0.159 ± 0.077
K20T	-0.08 ± 0.071
S15Q	0.082 ± 0.053
F27S	0.085 ± 0.045
N8Q	-0.025 ± 0.089
L71F	-0.184 ± 0.25
I45W	-0.176 ± 0.086
V3A	-0.242 ± 0.066
V46P	-0.439 ± 0.1
C44F	-0.074 ± 0.091
V69T	-0.12 ± 0.079
A6D	-0.054 ± 0.09
K38A	0.02 ± 0.076
R58F	-0.216 ± 0.19
S53K	-0.016 ± 0.11
V69H	-1 ± 0.43
N11H	0.103 ± 0.089
S76P	-0.467 ± 0.16
N8A	-0.059 ± 0.059
K35T	0.117 ± 0.094
S76Q	0.057 ± 0.11
V62A	-0.04 ± 0.06
I2R	-0.162 ± 0.049

Variant	abundance fitness
V74N	0.034 ± 0.2
D4L	-0.203 ± 0.047
C80L	0.022 ± 0.073
M59E	-0.768 ± 0.43
M59A	-0.258 ± 0.086
R40F	-0.006 ± 0.13
V46L	-0.183 ± 0.046
I2L	-0.115 ± 0.055
K38N	0.186 ± 0.28
K37F	-0.124 ± 0.14
G29R	-0.197 ± 0.056
E55K	-0.03 ± 0.11
R70D	-0.091 ± 0.13
T31W	-0.134 ± 0.087
L1M	-0.046 ± 0.16
E5N	-0.018 ± 0.12
L26S	-0.838 ± 0.11
P81V	-0.153 ± 0.14
L34R	-0.963 ± 0.17
L24Y	-0.224 ± 0.093
V43Q	0.147 ± 0.12
L67F	-0.411 ± 0.14
D49K	-0.529 ± 0.41
M59C	-0.066 ± 0.088
S12F	-0.036 ± 0.095
K20L	0.01 ± 0.051

Variant	abundance fitness
K56T	0.091 ± 0.085
K35Y	-0.229 ± 0.21
R61C	0.005 ± 0.16
C80G	0.056 ± 0.039
Q25D	0.048 ± 0.094
L26C	-0.346 ± 0.1
F27K	-0.023 ± 0.092
V74Q	0.037 ± 0.095
N66M	-0.04 ± 0.14
D30A	0.005 ± 0.063
R61Q	-0.036 ± 0.18
L33D	-0.572 ± 0.064
Q18F	-0.191 ± 0.074
S48M	-0.05 ± 0.094
G72T	-0.037 ± 0.1
D10S	-0.14 ± 0.061
V14R	-0.884 ± 0.083
S17M	-0.995 ± 0.15
D49R	-0.627 ± 0.064
N8S	-0.036 ± 0.053
L67P	-0.789 ± 0.14
S76I	-0.173 ± 0.13
V62S	0.051 ± 0.062
N60I	-0.681 ± 0.32
K37C	-0.226 ± 0.1
G72A	-0.271 ± 0.061

Variant	abundance fitness
Q18M	0.249 ± 0.13
A42L	-0.049 ± 0.056
C80K	-0.505 ± 0.49
V3E	-0.809 ± 0.17
S12Y	-0.119 ± 0.099
R58H	-0.246 ± 0.25
K56N	0.111 ± 0.23
K38F	-0.079 ± 0.2
K38L	0.019 ± 0.081
K37A	-0.222 ± 0.12
D50V	-0.12 ± 0.044
A42F	0.037 ± 0.095
I7W	-0.003 ± 0.056
R70A	0.043 ± 0.062
R28N	0.093 ± 0.14
V13N	-0.236 ± 0.12
A6C	-0.048 ± 0.077
S12Q	0.093 ± 0.068
L16F	-0.267 ± 0.085

Variants of: B2
Experiment: as above
Conditions: Homo sapiens

Variant	abundance fitness
FDLEELEKFAKTFKQRRIKLGFTQGDVGLAMGKLYGNDFSQTTISRFEALNLSFKNMCKLKPLLEKWLNDAESSP [S1F]	-0.062 ± 0.2
SELEELEKFAKTFKQRRIKLGFTQGDVGLAMGKLYGNDFSQTTISRFEALNLSFKNMCKLKPLLEKWLNDAESSP [D2E]	0.015 ± 0.1
SGLEELEKFAKTFKQRRIKLGFTQGDVGLAMGKLYGNDFSQTTISRFEALNLSFKNMCKLKPLLEKWLNDAESSP [D2G]	-0.01 ± 0.41
SNLEELEKFAKTFKQRRIKLGFTQGDVGLAMGKLYGNDFSQTTISRFEALNLSFKNMCKLKPLLEKWLNDAESSP [D2N]	-0.107 ± 0.21
SDFEELEKFAKTFKQRRIKLGFTQGDVGLAMGKLYGNDFSQTTISRFEALNLSFKNMCKLKPLLEKWLNDAESSP [L3F]	-0.055 ± 0.32
SDLEALEKFAKTFKQRRIKLGFTQGDVGLAMGKLYGNDFSQTTISRFEALNLSFKNMCKLKPLLEKWLNDAESSP [E5A]	0.042 ± 0.028
SDLECLEKFAKTFKQRRIKLGFTQGDVGLAMGKLYGNDFSQTTISRFEALNLSFKNMCKLKPLLEKWLNDAESSP [E5C]	-0.005 ± 0.036
